# Reference: the DeepSol protein solubility set
# Experiment: soluble on expression in E. coli; label from the status in PepcDB or PDB records
row,Sequence,soluble on expression in E. coli
1,MGSDKIHHHHHHMLTLLSYHQKVLDHFKHQTKTWDFFTASQNKDEQLNQYKTELLKNTYKFDPEKDTSIYEKVAKSKQVLGLDINVYVYQAQYSDELNASVGFVNNEAHIVFSGQIIQLLDDDELLTVIAHELSHIKLYTMQGGDPEVAARIITAISNNYDSESSYMETARLFRLYTEIFCDRGAYEVQGSTGPVITSLVKTATGLKQVNAESYIKQAEEIFSADQQLKAASISHPENFIRARAIHLWHEKKEAAEEEIIRMIEGVTDIDALDIFKQKELAACTRQFLQLYLKPNWFRSTLVVSQAKQYFVDFSWDDKIILEETFITRMEKAHESVKNYFSYVLLDFALLDSTLEEIPFGWAFQFAEDIDIKETFDAVVKKELNLSDKKLQQHKQKTLSAFYNVKEGDGEQIYEG,not soluble
2,MGSDKIHHHHHHMLTRLELAKDWVRDAGNFLKENIAAPLEITEKTRYDDLVTNFDKEVQEQIVANILHHFPEDKILAEEDEEKIKFDSEIPHLWVLDPIDGTTNFIVQKDNFAVMLAYYEYGVGKFGLILDVMKDKLYWCDSHKAFCNQKELELKERPLAQSLLGVNSYMYRSNSGGLLDLSHQTLGVRIIGSAGISYGQLLEGKIIGYFSSLQPWDYAAGSIIAERIGYVTLTISGESPHFNCRERVFTAPSYLISEIQKYIKK,not soluble
3,MGSDKIHHHHHHMLYDVAIIGGGPSGAAAAEILARAGHSTILIERNLANVKPCGGAIPLGLIEEFDIPDELVEKKLTRMSVRSPKGETIFMHMPNGYVGMVRRERFDRYLREKAQKAGAEVVEALVKKIERSVDRFTLQLFNKEGEALPPVEASYVIGADGANSKTADELGFPPNDLKVIAMQQRFHYCDELKPYEELVEIWFDGEVSPDFYGWIFPKTDHIAIGTGTEEHRNDIKQLQHRFVEKIGIAEKPYLNEAAKIPMKPRRSFTQERAILVGDAAGLVTPANGEGIFFAMRSGKLGAEAMIERIRNNTPLSSYEKKFRKLYSPIFFGLQVLQSVYYKSDRLRESFVAICRDKDVQGITFDSYLYKKMVPAPWSVQMKIMAKNIYHLAKGS,not soluble
4,MGSDKIHHHHHHMMAVAHKGEAQFDFYWRQQGEWVEEPNQRRGGESGVQRLNDADGKLLYAKRQVGHIYRSLLHPFGRPTVLRELDALNSFEQLGVRVPRIVFCGAQRDAEHQWRALLVSEALDGFVELDTWHAEGARERYPQVVHERMLKDLADNLARMHLGHWQHGCLYGKHVFIKVIGEGEQARVEVALLDLEKCRRRISCQRAAGNDLRQLRRHSSLNDAEWRTLLYFYKMAFGSAVKGLE,not soluble
5,MGSDKIHHHHHHMMFKQVQQDFMDYIRDPNQPLPKGIEPRRMKIYRDLFFNNLDGFVSSAFPVLKSLYASDDWQLLVQAFFVNHDCQSPIFMDIAAEFLQFLQTEYQTKESDPGFMLELAHYEWLELVVAVAQEDEQLMTLSQDEVKTAKMCLNSTARVAQYHFDVQHISVDYQPVEPTPQGQFFCVYRDNADEVAFLQLSPLSAQVLAYLEQSQQSTLLELCHWLAGLYPNMATEQLNQGAFGLLAQLADKGIVKTRA,not soluble
6,MGSDKIHHHHHHMMISLYSAATGMSAQQFKLDTIANNLANVDTTGYKKVRAEFQDLLYQYVKNAGTPTAATSSLPTGLYVGHGVRTAATTRIFTLGNFEQTGNALDLAIAGDGFFQIQLQDGRIAYTRDGSFKMDSEGRIVTSNGLLLVPEITIPENAVSINVSPDGIVSAELQDGTIQELGTITLVRFVNPSGLKSIGDNLYIATPASGDPIEGVPGQDGFGAIKQGFLEKSNVDVVREMVDMITAQRAYEFNSRVIQTADEMLRTATNVKR,not soluble
7,MGSDKIHHHHHHMMKLTALVDNTRLDSRPELAVERGLSFHVETMGSQILFDTGSSSTFCENAALMNISIQDVDLAVISHRHHDHCNGTTHFIERNSKAKIYLKDCEDKNYLFKAFGFKNDVGINKELLKNASERLIFVEHTTEILPNIFIITEISDKYEKPKGNRYLYTQSENGYKNDTFDHELLLVVKESDGLIVFTGCAHSGVLNMVETAIELFPNHRIKAVVGGFHLVGLPLLNSIGGTKQDIQAIGQALSHYPIDKLYTGHCTGMKAFGLLKEVLGDRLEHLPTGRSVLI,not soluble
8,MGSDKIHHHHHHMMKRVLIKPLEPLMFRSQGEFEPLITGSHTAAQSLIIPRPSTIAGMLGYILFNKSSGTGDWLSDLTNLLDTIYGTFIETNGEYLFPLRMGNHLALVDQQHLINLPILLEKEYEQREKGIYELFYDKNKLFQIINHQDRIGISIDKSTRTVKEHYLYSARYLAFKKEVNYVIFIDNDAISDKINGKIVNFGGENRIAKLEVDDYKVDTSIEEEYYLTLSPILIPDEALDDLLDNISDYVTMGKVDKISLGFDIANTKRKEMLTAILEGSIVKRSIIDFIKKEINNNLLDRFTKYEKIGYNTLMNLCKLAFRKILS,not soluble
9,MGSDKIHHHHHHMMPIRRPFGRGPAVSLFTLGTMRAIGSAEQMYGVVKAAQAAGINHIETSPAYGPAESFLGTALRQLQQKQAEPSGGWVITSKLLPGLSLKEGQCELHNLLARLGRPKLENLAVHGLNRPEHLEWALSGDGAALLRWAEEEDLVVQVGFTSHGSFPLIKEALASGRFQFCSLHLHLLDPERIPLAREALASGMGVMAISPADKGGRLQDPSPTLVEDCSPLSPLQLAYRFLLAAKISTLSLGAAQPEDLTLAAQLANADGPLNQREQRALNQLRQQGERRLGENRCGQCKACLPCPKSVPIPDLLRLRNLAVGHNLQAFTEERYNLIGRAGHWWEGIDGSACERCGECLPRCPHHLPIPDLLADTHQRLAAAPRRRLWG,not soluble
10,MGSDKIHHHHHHMMSNTAATVNHSQKVDLFIVGGGMIGSALAARLAPSGMRIALLENHQPAAFDPSSPPDLRVSALSPASIDFLEQAQAWPAIQTMRTAPFKRMQVWENRQDHGTMFDAAEVDAPWLGHIVENRLVQLACLEIVEGYDNVTLLCPGEIGQIAYRPEGSHIRLNSGQIFEATLLIGADGANSQVRKAAGIALDSQQYPMHALVATVAIQGGERDITWQRFTPDGPQSLLPLPGDYASLVWYHRPSEVRRLLTLDDDALLDAFRQHFPAVLPEITGLVRRGSFPLARSHAQAYVRPGVALIGDAAHTIHPLAGQGVNLGFQDAAVLSETLLRAWQTGADLAALPHLQRYERQRKLANLVMQRAMDAFSYGFSNDVAPLRLLRNLGLRFADHTGPIKRQVIRYALGLGPQPSLPLPSGLSKLLP,not soluble
11,MGSDKIHHHHHHMMTEMQQRAQLHRQIWKIADEVRGAVDGWDFKQYVLGTLFYRFISENFTDYMQAGDSSIDYAAMPDSIITPEIKDDAVKVKGYFIYPGQLFCNIAAEAHQNEELNTKLKEIFTAIESSASGYPSEQGIKGLFDDFDTTSSRLGSTVADKNKRLAAVLKGVAELDFGNFEDHRIDLFGDAYEYLISNYAANAGKSGGEFFTPQSVSKLIARLAVHGQEKVNKIYDPACGSGSLLLQAKKQFDEHIIEEGFFGQEINHTTYNLARMNMFLHNVNYNKFHIELGDTLTNPKLKDSKPFDAVVSNPPYSIDWIGSDDPTLINDDRFAPAGVLAPKSKADFAFILHALNYLSGRGRAAIVSFPGIFYRGGAEQKIRQYLVEGNYVETVIALAPNLFYGTCIAVNILVLSKHKDNTDIQFIDASGFFKKETNNNVLTEEHIAEIVKLFADKADVPHIAQNAAQQTVKDNGYNLAVSSYVEAEDTREVIDIRQLNAEISETVAKIERLRREIDEVIAEIET,not soluble
12,MGSDKIHHHHHHMMVPHLTTALTGPLLTLEKRLLDNMPRIEHWFRSQWQEYGAPFYASVDLRNAGFKLAPVDTNLFPGGFNNLNPDFLPLCIQAAMVAVEKICPDARRLLLIPENHTRNTFYLRNVHALTHILRQAGLEVRIGSIAPEITAPTFLETHDGHSILLEPVRRKANRLELDNFDSCAILLNNDLSGGIPDILQGLEQSLIPPLHAGWATRRKSNHFTAYDRVVEEFAPLIDIDPWLLNPYFDTCGGLDFHARLGEEQLAEKVDSLLAKIRRKYAEYGVKQEPFVIVKADAGTYGMGIMTVKSADDVRDLNRKQRNKMSVVKEGLKVSEVILQEGVYTFEHLKDAVAEPVIYMMDHFVVGGFYRVHTSRGADENLNAPGMHFEPLTFETPCSTPDCAGAPDAAPNRFYAYGVVARLALLAATIELQETDPDLLDERT,not soluble
13,MGSDKIHHHHHHMNAPFVPSRVVARLADPGERPAVARFLDAHPDATVFHRAAWLDAVEQSTGHRTHVLVSGQDEAIRAVLPLHEVHSPLFGRALVSTGFGVGGGVVGKGDAALFAAAQELAVRLNCPTVELRGGPLPQGDGWHVKTDSHAGFVTPLAADDEAQLLAIPRKQRAEVRRGLGYGMEVRTGRSPEDRAMHHAVYAQSVRNLGTPVFPRRLFDAVLDGFGDDADILTVLHEGRPLASVLSLYHRGAVMPYWGGGTFEARAMRANDVMYYALMNHARARGCDRFDFGRSKVDSGAYHFKRNWGFAPQPLSYAHWTADGQAPRDVNPLSPRYRARIALWQKLPLAVANRLGPIIANGLA,not soluble
14,MGSDKIHHHHHHMNEDLFYDRLHQRCPGKYLLEELETSKSNDVLHASRFVCEMELVQKTNAYYCKTIVKMLLDHEWIFAKAFTIVNDGEDEIEIYDYLYEKYIKLLSTGKPDPMMKDVVRYRFDEDVKITIEETPNLISAASTTGFRTWEAALYMGDFLIHKPLQELAPVQGQDDGKKKLNVLEVGAGTGIVSLVILQKYHEFVNKMYVTDGDSNLVETQLKRNFELNNEVRENEPDIKLQRLWWGSDRVPEDIDLVVGADVTYDPTILPDLCECLAECLALDRCKLCLLSATIRSESTVQLFSQECNKLGLKCTIVTSTEYDANNEIRAMKALQFKPLIAPIRIYKITKQ,not soluble
15,MGSDKIHHHHHHMNFSTTEIQTIFNANEAASAVLNQALEAAAQGTFAVGGMIVDNQTGNVICAMHNNVLKPLFGSSQNFTFDPTAHGERQLVYWYYANRHQLNLPDPEYLTIITTLDPCAMCAGTLLTAGFNVGVIAIDDFAGINYNQTFNFDTLPPDLRPLAKRKFGYYACGIKGVDPDIYVRGYVGGPNVAFKDSVVSVQNLTGCNNVFQANVEAVRNNSSNSGKAPQELFDPAALPDDAPVKLRYRELYADAFRLKIDNPRLPDKNLLDLLLYVKGSNPTAQNAVALLDPFGNVVLCMPDTFENSPVETAFMNVTQAYAITRYQLMNDPFARAQAYDYLTHPKYGTFVFLNAPNPADARTIMTLGAYGSTMEGPVPQIFPSNFQYYFLPQYGTEREFRLDIMNLPPFYTQLAQLSAMQVANY,not soluble
16,MGSDKIHHHHHHMNIQEKSKIEYRSRINRVMDYIDIHLDQPLELKSIAEIANFSPFHFHRIFTFLIGETPIDYIQRLRIEKAACRLRENMDISISEIADSCGFCTVSLFSRVFKKFFGLTPSQFRKTERPVYAQDGILFSKNGQMVSKNLTPKHVLSPQLCSVKFKISYFMETKIEVKEMPDMKAVYCRHMGAFKEIVKAYEKLIKWAEPRGLYIPNVTKSATVTHDDPSVTELSKVRQSACIIVEGDVKGEGEIGNLVIPGGQYAVGHFELGTEDFEKAWNTMCKWFTESGYQQGDGCTYELYHNSHRTHPENKHIVDICIPIKPL,not soluble
17,MGSDKIHHHHHHMNIQQLRYVVAIANNGTFREAASKLFVSQPSLSVSIKDLEAELGFQIFNRTTSGTVLTSQGLVFYEKALEVVKSFDSFEKTFSQADLDQNEFSIASQHYDFLPPLITAFSQQYDGHRVFRIFESTTIQILDEVAQGNSEIGIIYLNVDNQKGLFQRMDKLGLEYVSLIPFTTHIYLSKTHPLANREALYLNDIQGLPAVRFTQERDEYLYYSENFVDTSECPRIYNVSDRATLNGILERTNAFATGSGFLDHRSVNGIKVIPLADHIDNQMIYVKRKDKNLSVAGATFVTILKDYFDKRRKALT,not soluble
